The source of these data is PMC7422855.

This assay addresses human n-Glyceraldehyde-3-phosphate dehydrogenase (human) (UniProt P04406). As to the kind of experiment: SEC-MALS; Superdex S200 10/300 in 20 mM HEPES pH 7.5, 100 mM NaCl, 1 mM TCEP; 18-angle MALS detector with differential refractive index detector. A general note: Size exclusion chromatography separates by hydrodynamic size, large species first.

On to “human n-Glyceraldehyde-3-phosphate dehydrogenase, P04406 1-335 (enzyme; Cys152 partially oxidised to cysteine S-sulfonic acid (average occupancy 0.31±0.17 over 20 copies in crystal forms A, C and D; not significant in crystal form B); Cys152 partially oxidised to cysteine S-sulfonic acid (average occupancy 0.31±0.17 over 20 copies in crystal forms A, C and D; not significant in crystal form B); other documents disagree on this pair)”, for which the stoichiometry N – broadly, a count of units in the complex or per binding partner – was found to be 4.
